B1: PD1-Tim3-0476 (bispecific antibody)
heavy 1: not shown
heavy 2: EVQLVESGGGLVQPGGSLRLSCAASGFNIKTTYMHWVRQAPGKGLEWVGRIDPADDNTKYAPKFQGKATISADTSKNTAYLQMNSLRAEDTAVYYCVRDFGYVAWFAYWGQGTLVTVSSASTKGPSVFPLAPSSKSTSGGTAALGCLVEDYFPEPVTVSWNSGALTSGVHTFPAVLQSSGLYSLSSVVTVPSSSLGTQTYICNVNHKPSNTKVDEKVEPKSCDKTHTCPPCPAPEAAGGPSVFLFPPKPKDTLMISRTPEVTCVVVDVSHEDPEVKFNWYVDGVEVHNAKTKPREEQYNSTYRVVSVLTVLHQDWLNGKEYKCKVSNKALGAPIEKTISKAKGQPREPQVCTLPPSRDELTKNQVSLSCAVKGFYPSDIAVEWESNGQPENNYKTTPPVLDSDGSFFLVSKLTVDKSRWQQGNVFSCSVMHEALHNHYTQKSLSLSPGK
light 1: EVQLLESGGGLVQPGGSLRLSCAASGFSFSSYTMSWVRQAPGKGLEWVATISGGGRDIYYPDSVKGRFTISRDNSKNTLYLQMNSLRAEDTAVYYCVLLTGRVYFALDSWGQGTLVTVSSASVAAPSVFIFPPSDEQLKSGTASVVCLLNNFYPREAKVQWKVDNALQSGNSQESVTEQDSKDSTYSLSSTLTLSKADYEKHKVYACEVTHQGLSSPVTKSFNRGEC
light 2: DIVMTQSPLSLPVTPGEPASISCRASQSVDNYVAWYLQKPGQSPQLLIYYASNRYIGVPDRFSGSGSGTDFTLKISRVEAEDVGVYYCQQHYSSPYTFGQGTKVEIKRTVAAPSVFIFPPSDRKLKSGTASVVCLLNNFYPREAKVQWKVDNALQSGNSQESVTEQDSKDSTYSLSSTLTLSKADYEKHKVYACEVTHQGLSSPVTKSFNRGEC
B2: PD1-Tim3-0477 (bispecific antibody)
heavy 1: not shown
heavy 2: QITLKESGPTLVKPTQTLTLTCTFSGFSLSTSGMSVGWIRQPPGKGLEWLAHIWLNDDVFFNPALKSRLTITKDTSKNQVVLTMTNMDPVDTATYYCVRANGYLYALDYWGQGTLVTVSSASTKGPSVFPLAPSSKSTSGGTAALGCLVEDYFPEPVTVSWNSGALTSGVHTFPAVLQSSGLYSLSSVVTVPSSSLGTQTYICNVNHKPSNTKVDEKVEPKSCDKTHTCPPCPAPEAAGGPSVFLFPPKPKDTLMISRTPEVTCVVVDVSHEDPEVKFNWYVDGVEVHNAKTKPREEQYNSTYRVVSVLTVLHQDWLNGKEYKCKVSNKALGAPIEKTISKAKGQPREPQVCTLPPSRDELTKNQVSLSCAVKGFYPSDIAVEWESNGQPENNYKTTPPVLDSDGSFFLVSKLTVDKSRWQQGNVFSCSVMHEALHNHYTQKSLSLSPGK
light 1: B1 light 1
light 2: DIQLTQSPSFLSASVGDRVTITCSASSSVSYTQWYQQKPGKAPKLWIYDAFKLAPGVPSRFSGSGSGTEFTLTISSLQPEDFATYFCHQWSSYPWTFGQGTKLEIKRTVAAPSVFIFPPSDRKLKSGTASVVCLLNNFYPREAKVQWKVDNALQSGNSQESVTEQDSKDSTYSLSSTLTLSKADYEKHKVYACEVTHQGLSSPVTKSFNRGEC
B3: PD1-Tim3-0389 (bispecific antibody, human IgG1, kappa, L234A L235A)
heavy 1: not shown
heavy 2: EVQLQQSVAELVRPGASVKLSCTASGFNIKTTYMHWVKQRPEQGLEWIGRIDPADDNTKYAPKFQGKATITADTSSNTAYLQLSSLTSEDAAIYYCVRDFGYVAWFAYWGQGTLVTFSAASTKGPSVFPLAPSSKSTSGGTAALGCLVEDYFPEPVTVSWNSGALTSGVHTFPAVLQSSGLYSLSSVVTVPSSSLGTQTYICNVNHKPSNTKVDEKVEPKSCDKTHTCPPCPAPEAAGGPSVFLFPPKPKDTLMISRTPEVTCVVVDVSHEDPEVKFNWYVDGVEVHNAKTKPREEQYNSTYRVVSVLTVLHQDWLNGKEYKCKVSNKALGAPIEKTISKAKGQPREPQVCTLPPSRDELTKNQVSLSCAVKGFYPSDIAVEWESNGQPENNYKTTPPVLDSDGSFFLVSKLTVDKSRWQQGNVFSCSVMHEALHNRFTQKSLSLSPGK
light 1: EVILVESGGGLVKPGGSLKLSCAASGFSFSSYTMSWVRQTPEKRLDWVATISGGGRDIYYPDSVKGRFTISRDNAKNTLYLEMSSLMSEDTALYYCVLLTGRVYFALDSWGQGTSVTVSSASVAAPSVFIFPPSDEQLKSGTASVVCLLNNFYPREAKVQWKVDNALQSGNSQESVTEQDSKDSTYSLSSTLTLSKADYEKHKVYACEVTHQGLSSPVTKSFNRGEC
light 2: NIVMTPTPKFLPVSSGDRVTMTCRASQSVDNYVAWYQQKPGQSPKLLIYYASNRYIGVPDRFTGSGSGTDFTFTISSVQVEDLAVYFCQQHYSSPYTFGSGTKLEIKRTVAAPSVFIFPPSDRKLKSGTASVVCLLNNFYPREAKVQWKVDNALQSGNSQESVTEQDSKDSTYSLSSTLTLSKADYEKHKVYACEVTHQGLSSPVTKSFNRGEC
notes: also called bispecific anti-PD1/Tim3 antibody
B4: PD1-Tim3-0168 (bispecific antibody, human IgG1, kappa, L234A L235A)
heavy 1: not shown
heavy 2: QVTLKESGPGILQPSQTLSLTCSFSGFSLSTSGMSVGWIRQPSGKGLEWLAHIWLNDDVFFNPALKRRLTISKDTSNNQVFLQIASVVTADTATYYCVRANGYLYALDYWGQGISVTVSSASTKGPSVFPLAPSSKSTSGGTAALGCLVEDYFPEPVTVSWNSGALTSGVHTFPAVLQSSGLYSLSSVVTVPSSSLGTQTYICNVNHKPSNTKVDEKVEPKSCDKTHTCPPCPAPEAAGGPSVFLFPPKPKDTLMISRTPEVTCVVVDVSHEDPEVKFNWYVDGVEVHNAKTKPREEQYNSTYRVVSVLTVLHQDWLNGKEYKCKVSNKALGAPIEKTISKAKGQPREPQVCTLPPSRDELTKNQVSLSCAVKGFYPSDIAVEWESNGQPENNYKTTPPVLDSDGSFFLVSKLTVDKSRWQQGNVFSCSVMHEALHNRFTQKSLSLSPGK
light 1: B3 light 1
light 2: QIVLTQSPAIMSASPGQKVTITCSASSSVNYTQWYQQKLGSSPKLWIYDAFKLAPGVPARFSGSGTGTSYSLTISSMEAEDAASYFCHQWSSYPWTFGGGTKLEIKRTVAAPSVFIFPPSDRKLKSGTASVVCLLNNFYPREAKVQWKVDNALQSGNSQESVTEQDSKDSTYSLSSTLTLSKADYEKHKVYACEVTHQGLSSPVTKSFNRGEC
B5: PD1-Tim3-0359 (bispecific antibody, human IgG1, kappa, L234A L235A)
heavy: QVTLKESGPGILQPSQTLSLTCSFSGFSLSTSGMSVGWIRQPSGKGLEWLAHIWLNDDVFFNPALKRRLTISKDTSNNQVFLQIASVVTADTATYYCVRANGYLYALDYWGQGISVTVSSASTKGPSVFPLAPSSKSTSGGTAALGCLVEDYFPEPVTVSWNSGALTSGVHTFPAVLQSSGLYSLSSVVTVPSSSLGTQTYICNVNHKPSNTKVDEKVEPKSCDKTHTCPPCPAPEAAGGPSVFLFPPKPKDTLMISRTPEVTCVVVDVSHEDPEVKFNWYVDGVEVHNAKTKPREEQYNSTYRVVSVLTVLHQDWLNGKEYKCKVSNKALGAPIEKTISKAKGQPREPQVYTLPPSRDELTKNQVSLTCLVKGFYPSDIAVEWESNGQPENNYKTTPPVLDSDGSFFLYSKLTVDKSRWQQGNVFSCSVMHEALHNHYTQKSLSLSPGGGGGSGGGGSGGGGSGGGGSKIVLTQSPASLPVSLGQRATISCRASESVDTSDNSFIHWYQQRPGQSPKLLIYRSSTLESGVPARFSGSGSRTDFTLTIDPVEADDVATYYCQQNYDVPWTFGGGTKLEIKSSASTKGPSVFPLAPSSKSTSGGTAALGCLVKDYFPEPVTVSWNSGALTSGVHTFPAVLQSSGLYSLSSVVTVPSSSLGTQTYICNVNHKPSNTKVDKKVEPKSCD
light 1: B4 light 2
light 2: B3 light 1
notes: also called 2+2 format bispecific antibody PD1-Tim3-0359

Tests used:
[1] = target: T1, Tim3-CLIP (human Tim3 extracellular domain - CLIP tag - Tim3 transmembrane region - Flag tag, on HEK293 cells) (human, CLIP tag labelled with CLIP-Red (FRET acceptor dye)); assay: cell-based TR-FRET (Tag-lite) on HEK293 cells co-expressing PD1-SNAP and Tim3-CLIP; signal needs simultaneous binding of both
T1 construct: also called Tim3 receptor on PD1+Tim3+ HEK cells

[2] = target: T2, PD1-SNAP (human PD1 extracellular domain - SNAP tag - PD1 transmembrane region - Flag tag, on HEK293 cells) (human, SNAP tag labelled with SNAP-Lumi4-Tb (FRET donor dye)); assay: as above
T2 construct: also called PD1 receptor on PD1+Tim3+ HEK cells

[3] = target: T1, Tim3-CLIP (human Tim3 extracellular …); assay: cell-based TR-FRET on PD1-SNAP/Tim3-CLIP HEK293 cells (FIG. 5)
Experimental: Transfected cells were sedimented and resuspended at a density of 1×10⁶ cells/ml in tag-Lite® buffer (Cisbio). Thereafter, cells were stained with 100 nM SNAP-Lumi4-Tb (Cisbio) and 100 nM CLIP-Red (Cisbio) for one hour at 37° C. in tag-Lite® buffer (Cisbio). After washing and re-suspending in PBS buffer comprising 2% FCS (v/v), about 50.000 cells (in 50 μl volume) were seeded into 96-well flat-bottom white plates (Costar) bevor either control antibody (e.g. a bivalent, monospecific antibody or an isotype control) or bispecific antibody was added to the cells at a final concentration of 0.001-10 nM. After an incubation for one hour at 4° C. or room temperature, time-resolved fluorescence was measured as ratio of the emission signal at 665 nm and 620 nm (665/620 nm ratio) with a BMG Pherastar reader or Tecan Infinite M1000 Pro using standard settings provided by the respective vendor.

[4] = target: T1, Tim3-CLIP (human Tim3 extracellular …); assay: cell-based TR-FRET on PD1-SNAP/Tim3-CLIP HEK293 cells, antibody at 0.01-40 nM, 1 h at 4 C (FIG. 6, diamond)
Experimental: (§1) Transfected cells were sedimented and resuspended at a density of 1×10⁶ cells/ml in tag-Lite® buffer (Cisbio). Thereafter, cells were stained with 100 nM SNAP-Lumi4-Tb (Cisbio) and 100 nM CLIP-Red (Cisbio) for one hour at 37° C. in tag-Lite® buffer (Cisbio). […] After an incubation for one hour at 4° C. or room temperature, time-resolved fluorescence was measured as ratio of the emission signal at 665 nm and 620 nm (665/620 nm ratio) with a BMG Pherastar reader or Tecan Infinite M1000 Pro using standard settings provided by the respective vendor.
(§2) To show the specificity of the FRET signal induced by simultaneous binding of the bispecific antibody, monoclonal IgGs of only one specificity were added for competition. Therefore, PD1 and Tim3 expressing HEK cells as described before were labelled with 100 nM SNAP-Lumi4-Tb and 100 nM CLIP-Red. […] A FRET signal was detected. To underline the specificity of FRET signal after bispecific antibody treatment, a monospecific, bivalent anti-PD1 monoclonal antibody was tested alone (FIG. 6, triangle). No FRET signal was detected. If the monospecific, bivalent anti-PD1 monoclonal antibody and the bispecific anti-PD1/Tim3 antibody were present (80 nM monospecific antibody concentration) no FRET signal was detected (FIG. 6, squares). Likewise no FRET signal was obtained if a bivalent, monospecific anti-Tim3 antibody was added (see FIG. 7).

[5] = target: T2, PD1-SNAP (human PD1 extracellular …); assay: as above
Experimental: as §1, §2

Row | Binder | binding result [1] | binding result [2] | further results
1 | B1 | binds |  | 
2 | B2 | binds |  | 
3 | B3 |  | binds | binding result [3]: binds
4 | B4 |  |  | binding result [4]: binds; binding result [5]: binds
5 | B5 | binds | binds | 
